From patent US11851495 (Boehringer Ingelheim, dated 2023)
Changes are numbered by the printed parent chain.

B1: CDH17H2/TR2v2-(IgG1 KO) (bispecific antibody)
heavy: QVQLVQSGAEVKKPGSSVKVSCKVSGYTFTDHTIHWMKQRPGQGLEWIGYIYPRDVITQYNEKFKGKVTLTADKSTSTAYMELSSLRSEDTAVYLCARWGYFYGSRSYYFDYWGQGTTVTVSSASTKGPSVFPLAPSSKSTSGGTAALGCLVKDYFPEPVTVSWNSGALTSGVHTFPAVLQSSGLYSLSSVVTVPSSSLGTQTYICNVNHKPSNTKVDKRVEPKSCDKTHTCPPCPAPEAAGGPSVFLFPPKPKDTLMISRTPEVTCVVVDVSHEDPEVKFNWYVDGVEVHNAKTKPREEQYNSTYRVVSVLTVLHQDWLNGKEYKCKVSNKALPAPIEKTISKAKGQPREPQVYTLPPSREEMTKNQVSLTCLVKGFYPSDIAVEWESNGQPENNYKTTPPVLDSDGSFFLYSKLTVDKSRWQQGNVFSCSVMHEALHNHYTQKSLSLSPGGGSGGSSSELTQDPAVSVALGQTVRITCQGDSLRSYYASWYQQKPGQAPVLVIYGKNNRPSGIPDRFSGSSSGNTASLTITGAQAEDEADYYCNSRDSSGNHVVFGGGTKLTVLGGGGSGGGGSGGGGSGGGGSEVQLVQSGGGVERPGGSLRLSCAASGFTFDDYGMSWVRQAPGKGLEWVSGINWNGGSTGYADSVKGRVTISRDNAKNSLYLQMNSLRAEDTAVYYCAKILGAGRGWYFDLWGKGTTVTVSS
light: DIQMTQSQSSLSASVGDRVGITCKASQNVGTAVAWYQQKPGKAPKLLIYSASNRYTGVPSRFSGSGSGTDFTLTISSLQPKDFATYFCQQYSSYPWTFGQGTKLEIKRTVAAPSVFIFPPSDEQLKSGTASVVCLLNNFYPREAKVQWKVDNALQSGNSQESVTEQDSKDSTYSLSSTLTLSKADYEKHKVYACEVTHQGLSSPVTKSFNRGEC
B2: CDH17H2/TR2v6-(IgG1 KO) (bispecific antibody)
heavy: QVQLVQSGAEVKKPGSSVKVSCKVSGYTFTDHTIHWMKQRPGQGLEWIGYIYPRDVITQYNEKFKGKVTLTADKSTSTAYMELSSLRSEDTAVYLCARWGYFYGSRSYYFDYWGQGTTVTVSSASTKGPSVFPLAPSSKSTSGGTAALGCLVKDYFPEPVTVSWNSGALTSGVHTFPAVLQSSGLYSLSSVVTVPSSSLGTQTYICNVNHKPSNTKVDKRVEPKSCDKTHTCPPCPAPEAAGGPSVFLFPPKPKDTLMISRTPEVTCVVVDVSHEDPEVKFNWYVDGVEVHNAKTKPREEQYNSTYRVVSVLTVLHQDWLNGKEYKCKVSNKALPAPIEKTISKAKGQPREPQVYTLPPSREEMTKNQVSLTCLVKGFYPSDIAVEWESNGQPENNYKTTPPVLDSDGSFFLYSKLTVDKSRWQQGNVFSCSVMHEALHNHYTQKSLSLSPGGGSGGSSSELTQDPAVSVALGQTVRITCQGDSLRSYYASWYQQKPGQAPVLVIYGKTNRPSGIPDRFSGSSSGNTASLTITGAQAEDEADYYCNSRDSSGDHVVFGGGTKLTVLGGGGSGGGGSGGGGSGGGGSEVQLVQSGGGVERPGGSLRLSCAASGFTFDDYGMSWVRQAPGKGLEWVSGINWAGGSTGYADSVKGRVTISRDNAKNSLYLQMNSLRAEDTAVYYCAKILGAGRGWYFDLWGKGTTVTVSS
light: B1 light
B3: CDH17H2/TR2v5-(IgG1 KO) (bispecific antibody)
heavy: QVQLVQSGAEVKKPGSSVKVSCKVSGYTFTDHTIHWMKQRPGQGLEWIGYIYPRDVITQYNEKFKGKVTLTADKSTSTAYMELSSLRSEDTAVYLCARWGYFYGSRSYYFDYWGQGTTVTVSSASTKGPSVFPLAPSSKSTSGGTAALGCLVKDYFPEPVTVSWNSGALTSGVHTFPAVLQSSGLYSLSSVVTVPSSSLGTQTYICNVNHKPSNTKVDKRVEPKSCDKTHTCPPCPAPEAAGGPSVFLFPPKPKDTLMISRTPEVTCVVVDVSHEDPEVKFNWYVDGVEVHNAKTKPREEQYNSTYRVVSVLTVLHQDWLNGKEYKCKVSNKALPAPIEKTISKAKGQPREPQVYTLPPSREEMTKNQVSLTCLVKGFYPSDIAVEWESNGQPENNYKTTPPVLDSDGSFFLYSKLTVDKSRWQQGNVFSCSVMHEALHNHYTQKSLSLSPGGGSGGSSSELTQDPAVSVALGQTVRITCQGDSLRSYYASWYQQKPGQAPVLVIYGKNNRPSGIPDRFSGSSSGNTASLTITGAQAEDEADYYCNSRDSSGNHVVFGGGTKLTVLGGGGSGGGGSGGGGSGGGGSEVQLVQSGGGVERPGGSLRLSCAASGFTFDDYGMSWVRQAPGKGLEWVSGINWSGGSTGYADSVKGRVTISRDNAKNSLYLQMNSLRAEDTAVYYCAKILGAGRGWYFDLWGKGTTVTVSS
light: B1 light
B4: CDH17H2/TR2v7-(IgG1 KO) (bispecific antibody)
heavy: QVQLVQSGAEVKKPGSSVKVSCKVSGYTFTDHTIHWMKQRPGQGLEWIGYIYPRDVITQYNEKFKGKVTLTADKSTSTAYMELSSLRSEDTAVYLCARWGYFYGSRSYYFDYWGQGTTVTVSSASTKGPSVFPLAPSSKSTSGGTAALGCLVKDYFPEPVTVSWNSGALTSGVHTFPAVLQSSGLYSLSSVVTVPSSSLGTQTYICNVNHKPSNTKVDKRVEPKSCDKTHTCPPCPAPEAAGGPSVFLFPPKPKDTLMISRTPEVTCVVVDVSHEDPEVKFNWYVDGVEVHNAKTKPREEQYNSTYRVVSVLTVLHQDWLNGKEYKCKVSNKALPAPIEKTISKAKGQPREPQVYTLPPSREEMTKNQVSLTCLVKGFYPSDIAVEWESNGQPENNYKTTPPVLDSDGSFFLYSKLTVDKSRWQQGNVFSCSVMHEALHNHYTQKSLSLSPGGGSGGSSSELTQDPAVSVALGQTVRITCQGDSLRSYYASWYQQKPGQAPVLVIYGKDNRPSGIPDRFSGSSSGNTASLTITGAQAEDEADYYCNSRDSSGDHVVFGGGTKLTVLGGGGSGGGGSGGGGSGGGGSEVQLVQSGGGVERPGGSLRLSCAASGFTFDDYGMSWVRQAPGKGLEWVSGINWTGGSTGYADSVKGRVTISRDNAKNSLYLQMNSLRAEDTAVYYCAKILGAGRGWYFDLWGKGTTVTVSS
light: B1 light
B5: CDH17H2/TR2v4-(IgG1 KO) (bispecific antibody)
heavy: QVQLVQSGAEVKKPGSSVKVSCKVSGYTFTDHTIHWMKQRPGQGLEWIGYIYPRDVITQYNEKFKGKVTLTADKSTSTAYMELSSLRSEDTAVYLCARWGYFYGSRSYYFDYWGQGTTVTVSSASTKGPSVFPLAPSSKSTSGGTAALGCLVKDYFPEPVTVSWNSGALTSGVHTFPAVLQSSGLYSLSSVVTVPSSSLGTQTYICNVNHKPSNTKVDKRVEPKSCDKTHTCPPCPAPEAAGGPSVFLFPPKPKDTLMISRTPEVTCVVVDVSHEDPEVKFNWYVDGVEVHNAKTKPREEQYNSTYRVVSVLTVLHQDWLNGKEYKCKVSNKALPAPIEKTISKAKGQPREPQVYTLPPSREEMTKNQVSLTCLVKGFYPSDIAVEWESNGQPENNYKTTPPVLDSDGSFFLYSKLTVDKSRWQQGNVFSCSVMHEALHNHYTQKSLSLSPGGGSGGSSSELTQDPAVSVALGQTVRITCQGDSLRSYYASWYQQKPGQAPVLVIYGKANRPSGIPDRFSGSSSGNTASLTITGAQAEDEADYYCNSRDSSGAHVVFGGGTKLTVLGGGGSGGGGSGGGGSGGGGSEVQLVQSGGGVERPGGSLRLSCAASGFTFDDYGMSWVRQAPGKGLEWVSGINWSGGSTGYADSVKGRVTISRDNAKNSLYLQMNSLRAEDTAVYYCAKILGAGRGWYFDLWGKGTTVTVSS
light: B1 light
B6: CDH17H2/TR2v3-(IgG1 KO) (bispecific antibody)
heavy: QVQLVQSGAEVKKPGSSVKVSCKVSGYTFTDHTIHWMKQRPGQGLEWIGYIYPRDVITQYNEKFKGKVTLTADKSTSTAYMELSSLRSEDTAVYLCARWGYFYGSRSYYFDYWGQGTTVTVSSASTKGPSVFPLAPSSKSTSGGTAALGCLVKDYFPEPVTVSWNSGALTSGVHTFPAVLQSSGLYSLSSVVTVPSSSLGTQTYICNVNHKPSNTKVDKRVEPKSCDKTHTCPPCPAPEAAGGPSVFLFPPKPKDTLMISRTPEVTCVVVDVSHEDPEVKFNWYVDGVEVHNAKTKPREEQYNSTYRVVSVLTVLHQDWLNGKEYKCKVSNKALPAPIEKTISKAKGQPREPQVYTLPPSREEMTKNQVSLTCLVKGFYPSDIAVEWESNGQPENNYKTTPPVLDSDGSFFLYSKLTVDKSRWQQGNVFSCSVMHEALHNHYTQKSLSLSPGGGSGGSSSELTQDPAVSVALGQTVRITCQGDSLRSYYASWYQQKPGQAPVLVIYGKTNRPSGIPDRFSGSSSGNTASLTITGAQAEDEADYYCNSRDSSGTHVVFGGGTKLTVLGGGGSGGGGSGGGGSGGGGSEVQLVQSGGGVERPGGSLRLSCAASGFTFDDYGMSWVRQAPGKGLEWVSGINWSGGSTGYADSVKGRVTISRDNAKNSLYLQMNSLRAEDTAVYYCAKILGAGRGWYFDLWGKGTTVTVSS
light: B1 light
B7: CDH17E9/TR2v2-(IgG1 KO) (bispecific antibody)
heavy: not shown
light: DIVMTQSQTFMSTTVGDRVSITCKASQNVGTALAWYQQKPRQSPKLLIYSASNRFTGVPDRFTGSGSGTDFTLTISNMRSEDLADYVCQQYSTYPLTFGSGTKLEIRRTVAAPSVFIFPPSDEQLKSGTASVVCLLNNFYPREAKVQWKVDNALQSGNSQESVTEQDSKDSTYSLSSTLTLSKADYEKHKVYACEVTHQGLSSPVTKSFNRGEC
B8: CDH17v1/TR2v1 (bispecific antibody, human IgG1, kappa)
heavy: not shown
light: DIVMSQSPSSLAVSVGEKVTMSCKSSQSLLHSSNQKNYLAWYQQKPGQSPKVLIYWASTRESGVPDRFTGSGSGTDFTLTITSVKSEDLAVYYCQQYYSYPWTFGGGTRLEIKRTVAAPSVFIFPPSDEQLKSGTASVVCLLNNFYPREAKVQWKVDNALQSGNSQESVTEQDSKDSTYSLSSTLTLSKADYEKHKVYACEVTHQGLSSPVTKSFNRGEC
B9: CDH17v1/TR2#1-(IgG1 KO) (bispecific antibody)
heavy: not shown
light: B8 light
B10: CDH17v1/TR2#3-(IgG1 KO) (bispecific antibody)
heavy: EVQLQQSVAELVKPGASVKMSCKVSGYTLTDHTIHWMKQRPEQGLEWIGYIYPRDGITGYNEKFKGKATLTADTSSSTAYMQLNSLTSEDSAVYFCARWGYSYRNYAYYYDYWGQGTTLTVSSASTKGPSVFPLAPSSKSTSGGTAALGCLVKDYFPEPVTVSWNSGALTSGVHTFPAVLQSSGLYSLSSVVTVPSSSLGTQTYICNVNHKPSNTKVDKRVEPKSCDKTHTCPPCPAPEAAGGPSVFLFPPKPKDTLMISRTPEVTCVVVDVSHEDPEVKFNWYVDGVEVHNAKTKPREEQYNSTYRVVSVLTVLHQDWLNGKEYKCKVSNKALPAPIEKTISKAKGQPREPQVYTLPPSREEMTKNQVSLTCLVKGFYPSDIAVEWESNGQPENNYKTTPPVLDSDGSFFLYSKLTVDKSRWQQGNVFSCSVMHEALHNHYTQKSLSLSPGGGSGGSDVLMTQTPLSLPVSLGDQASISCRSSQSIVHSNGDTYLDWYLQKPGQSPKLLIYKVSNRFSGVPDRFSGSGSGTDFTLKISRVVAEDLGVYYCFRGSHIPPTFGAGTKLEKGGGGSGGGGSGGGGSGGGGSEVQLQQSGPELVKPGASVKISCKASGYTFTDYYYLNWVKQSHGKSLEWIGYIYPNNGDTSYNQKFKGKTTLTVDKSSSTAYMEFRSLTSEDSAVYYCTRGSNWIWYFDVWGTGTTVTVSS
light: B8 light
B11: CDH17v1/TR2#8-(IgG1 KO) (bispecific antibody)
heavy: not shown
light: B8 light
B12: CDH17v1/TR2#2-(IgG1 KO) (bispecific antibody)
heavy: not shown
light: B8 light
B13: CDH17v1/TR2v1-(IgG1 KO) (bispecific antibody)
heavy: not shown
light: B8 light
B14: CDH17v1/TR2#10-(IgG1 KO) (bispecific antibody)
heavy: not shown
light: B8 light
B15: CDH17A6/TR2v2-(IgG1 KO) (bispecific antibody)
heavy: not shown
light: DIVMTQSQKFMSTTVGDRVSITCKASQNVGTGVVWYQQRPGQSPKLLIYSPSNRYTGVPDRFTGSGSGTDFTLTITNIQSEDLADYFCQQYSTYPWTFGGGTKLEIKRTVAAPSVFIFPPSDEQLKSGTASVVCLLNNFYPREAKVQWKVDNALQSGNSQESVTEQDSKDSTYSLSSTLTLSKADYEKHKVYACEVTHQGLSSPVTKSFNRGEC
B16: CDH17E2/TR2v2-(IgG1 KO) (bispecific antibody)
heavy: not shown
light: B15 light with S20N, G32A, V34A, R39K, P51A, I78M, E81K, T93S
B17: anti-TRAILR2 antibody (anti-TR2v2) (antibody, V domains shown)
VH: EVQLVQSGGGVERPGGSLRLSCAASGFTFDDYGMSWVRQAPGKGLEWVSGINWNGGSTGYADSVKGRVTISRDNAKNSLYLQMNSLRAEDTAVYYCAKILGAGRGWYFDLWGKGTTVTVSS
VL: SSELTQDPAVSVALGQTVRITCQGDSLRSYYASWYQQKPGQAPVLVIYGKNNRPSGIPDRFSGSSSGNTASLTITGAQAEDEADYYCNSRDSSGNHVVFGGGTKLTVL
B18: anti-CDH17H2 antibody (antibody, V domains shown)
VH: QVQLVQSGAEVKKPGSSVKVSCKVSGYTFTDHTIHWMKQRPGQGLEWIGYIYPRDVITQYNEKFKGKVTLTADKSTSTAYMELSSLRSEDTAVYLCARWGYFYGSRSYYFDYWGQGTTVTVSS
VL: DIQMTQSQSSLSASVGDRVGITCKASQNVGTAVAWYQQKPGKAPKLLIYSASNRYTGVPSRFSGSGSGTDFTLTISSLQPKDFATYFCQQYSSYPWTFGQGTKLEIK
notes: also called parental CDH17 antibody

biological target: T1, cadherin-17 (CDH17) (human, UniProt Q12864 23-832); experiment: cell-based or functional assay

Binder | cell viability of Colo-205 cells, 24 h | cell viability of Colo-205 cells, 24 h (CellTiter-Glo)
B1 | 0.01 nM | 
B2 | 0.01 nM | 
B3 | 0.01 nM | 
B4 | 0.01 nM | 
B5 | 0.01 nM | 
B6 | 0.01 nM | 
B7 | 0.01 nM | 
B8 |  | > 1000 fold
B9 | 0.01 nM | 
B10 | 0.01 nM | 
B11 | 0.01 nM | 
B12 | 0.01 nM | 
B13 | 0.01 nM | 
B14 | 0.01 nM | 
B15 | 0.01 nM | 
B16 | 0.01 nM | 

biological target: TNF-related apoptosis-inducing ligand receptor 2 (TRAILR2) (human, UniProt O14763 56-440); experiment: cell-based or functional assay

Binder | cell viability of Colo-205 cells, 24 h | concentration needed for an effect on viability of HepG2 cells (CDH17 negative), 72 h | cell viability of Colo-205 cells, 24 h (CellTiter-Glo)
B1 | 0.01 nM | > 1 nM | 
B2 | 0.01 nM | > 1 nM | 
B3 | 0.01 nM | > 1 nM | 
B4 | 0.01 nM | > 1 nM | 
B5 | 0.01 nM | > 1 nM | 
B6 | 0.01 nM | > 1 nM | 
B17 | 0.01 nM |  | 
B7 | 0.01 nM |  | 
B8 |  |  | > 1000 fold
B9 | 0.01 nM |  | 
B10 | 0.01 nM |  | 
B11 | 0.01 nM |  | 
B12 | 0.01 nM |  | 
B13 | 0.01 nM |  | 
B14 | 0.01 nM |  | 
B15 | 0.01 nM |  | 
B16 | 0.01 nM |  | 

biological target: T1, cadherin-17 (CDH17); experiment: flow cytometry (FACS) on Colo-205 cells, antibody as primary reagent
Procedure: TRAILR2 and CDH17 protein surface expression on the Colo-205 cells was analyzed as follows. Cells were detached using Accutase (Sigma A6964) and washed twice with FACS buffer (PBS, Gibco 14190; 3% FCS, Gibco 26140; and 0.09% NaN_3, Sigma Aldrich S2002).
After seeding the cells, the plate was centrifuged at 1200 rpm for 5 minutes and the supernatant were discarded. Cells were then incubated for 60 min at 4° C. with 100p/well of the primary antibody appropriated dilution. Cells were washed twice with FACS buffer and 100p/well of the appropriated dilution of secondary/conjugated antibodies was added. Cells with secondary antibodies were incubated for 45 min at 4° C. in the dark. After two washes with FACS buffer, cells were resuspended in 100p FACS buffer per well and analyzed in a FACS Canto (BD Biosciences).
Example 12: Detection of CDH17 Surface Expression Using Newly Generated CDH17 Antibodies In FIG. 13 is shown how the newly generated anti-CDH17H2 antibody (comprising a VH of SEQ ID NO: 116 and a VL of SEQ ID NO: 117 and an IgG1 sequence of SEQ ID NO: 121) is able to detect CDH17 protein surface expression. FACS analysis was performed as described in Example 6. The newly generated anti-CDH17H2 antibody was used as primary antibody for detection, followed by a secondary antibody rabbit anti-mouse IgG PE (Dako, R0439). […]

Binder | binding result
B18 | binds
